Experiments:
[1] = biological target: T1, human CD27, full length, on cells (T cells, transfected HEK293F cells, Daudi cells, NFκB-luc2/CD27 Jurkat … (human, UniProt P26842 20-240)); test: flow cytometry on CD4+ T cells in human PBMC, FITC goat anti-human IgG F(ab')2, median FITC
T1 construct: Residues 1-19 are stated to be the signal peptide; also called TNFRSF7
T1 sequence: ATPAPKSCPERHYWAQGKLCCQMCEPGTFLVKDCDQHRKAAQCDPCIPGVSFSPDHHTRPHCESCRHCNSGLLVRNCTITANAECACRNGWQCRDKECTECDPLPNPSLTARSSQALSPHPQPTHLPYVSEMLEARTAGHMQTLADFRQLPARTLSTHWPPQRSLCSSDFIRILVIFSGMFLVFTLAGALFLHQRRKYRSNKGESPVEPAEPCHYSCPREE
Description: Binding of IgG1-CD27-A-P329R-E345R to CD27 on human healthy donor T cells was characterized in more detail using flow cytometry. Anti-HIV gp120 antibody variant IgG1-b12-P329R-E345R was used as non-binding control antibody (ctrl). Human PBMCs were isolated from buffy coats obtained from human healthy donors. PBMC (1×10⁵ cells/well) in FACS buffer were added to polystyrene 96-well round-bottom plates (Greiner bio-one, Cat #650101) and pelleted by centrifugation at 300×g for 3 min at 4° C. The cells were resuspended in 50 μL/well serial antibody dilutions in FACS buffer (range 0.0015 to 10 μg/mL in 3-fold dilution steps) and incubated for 30 min at 4° C. Cells were pelleted, washed twice with FACS buffer and incubated in 50 μL/well with FITC-conjugated secondary antibody (FITC AffiniPure F(ab′)₂ fragment goat anti-human IgG, F(ab′)₂ fragment specific, Jackson ImmunoResearch, Cat #109-096-097, diluted 1:100) for 30 min at 4° C. in the dark. […] The samples were measured by flow cytometry on an LSRFortessa (BD) flow cytometer and analyzed using FlowJo software. Binding curves were analyzed using non-linear regression (sigmoidal dose-response with variable slope) using GraphPad Prism 8 software.

[2] = biological target: T2, recombinant His-tagged human FcγRIIb (human, UniProt P31994 43-217); test: SPR (Biacore), His-tagged FcγRIIb captured on anti-His chip, antibody in solution, resonance units against antibody concentration
T2 construct: Bought; captured on anti-His chip; not shown: His tag
T2 sequence (looked up): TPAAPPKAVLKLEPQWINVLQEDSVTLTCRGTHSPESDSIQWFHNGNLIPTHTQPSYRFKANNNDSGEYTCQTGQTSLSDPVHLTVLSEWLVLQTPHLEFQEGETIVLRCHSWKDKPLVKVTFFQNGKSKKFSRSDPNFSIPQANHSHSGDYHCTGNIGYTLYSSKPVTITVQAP

[3] = biological target: T3, recombinant His-tagged human FcγRIIa (167-Arg [R]) (human, UniProt P12318 34-218, limits assumed); test: SPR (Biacore), His-tagged FcγRIIa-R captured on anti-His chip, antibody in solution, resonance units against antibody concentration
T3 construct: Bought; captured on anti-His chip; also called FcγRIIa-R; not shown: His tag
T3 sequence (looked up): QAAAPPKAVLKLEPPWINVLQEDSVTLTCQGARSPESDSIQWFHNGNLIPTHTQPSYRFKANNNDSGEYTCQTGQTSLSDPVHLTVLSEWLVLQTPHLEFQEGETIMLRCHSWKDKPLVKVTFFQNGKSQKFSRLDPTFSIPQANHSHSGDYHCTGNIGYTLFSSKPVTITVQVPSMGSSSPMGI

[4] = biological target: T4, recombinant His-tagged human FcγRIIIa (176-Phe [F]) (human, UniProt P08637 17-208); test: SPR (Biacore), His-tagged FcγRIIIa-F captured on anti-His chip, antibody in solution, resonance units against antibody concentration
T4 construct: Bought; captured on anti-His chip; also called FcγRIIIa-F; not shown: His tag

[5] = biological target: T5, recombinant His-tagged human FcγRIIIa (176-Val [V]) (human, UniProt P08637 17-208); test: SPR (Biacore), His-tagged FcγRIIIa-V captured on anti-His chip, antibody in solution, resonance units against antibody concentration
T5 construct: Bought; captured on anti-His chip; also called FcγRIIIa-V; not shown: His tag
T5 sequence (P08637 17-208 F176V limits assumed): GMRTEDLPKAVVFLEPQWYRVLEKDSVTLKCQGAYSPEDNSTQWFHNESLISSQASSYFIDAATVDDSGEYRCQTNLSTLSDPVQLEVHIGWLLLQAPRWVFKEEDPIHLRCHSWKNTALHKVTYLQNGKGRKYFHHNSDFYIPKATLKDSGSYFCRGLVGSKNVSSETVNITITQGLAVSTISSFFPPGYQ

T4 sequence (P08637 17-208 limits assumed): as the sequence (P08637 17-208 F176V limits assumed) above, with V160F counted along it

B1: IgG1-CD27-A-P329R-E345R (antibody)
heavy: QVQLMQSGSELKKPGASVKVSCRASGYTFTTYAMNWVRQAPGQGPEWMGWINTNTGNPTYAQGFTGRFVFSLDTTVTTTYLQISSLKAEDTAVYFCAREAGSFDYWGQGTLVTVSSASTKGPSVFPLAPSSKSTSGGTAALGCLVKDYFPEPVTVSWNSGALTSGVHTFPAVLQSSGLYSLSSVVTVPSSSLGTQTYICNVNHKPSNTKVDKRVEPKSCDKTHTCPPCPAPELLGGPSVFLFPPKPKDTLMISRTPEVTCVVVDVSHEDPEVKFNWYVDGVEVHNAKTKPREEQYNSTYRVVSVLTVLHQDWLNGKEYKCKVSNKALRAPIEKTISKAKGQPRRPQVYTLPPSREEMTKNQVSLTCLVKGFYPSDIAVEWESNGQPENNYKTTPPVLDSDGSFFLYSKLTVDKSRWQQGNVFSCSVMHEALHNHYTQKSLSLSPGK
light: QSALTQPASVSGSPGQSITISCTGTSSDVYYYNYVSWYQQHPGRAPKLVIYDVSNRPSGVSNRFSGSKSGNTASLTISGLRAEDEADYYCSSYTVNRVWVFGGGTKLTVLGQPKAAPSVTLFPPSSEELQANKATLVCLISDFYPGAVTVAWKADSSPVKAGVETTTPSKQSNNKYAASSYLSLTPEQWKSHRSYSCQVTHEGSTVEKTVAPTECS
notes: also called IgG1-CD27-A-E345R-P329R
EC50 (read off the curve) [1]: ~0.03 µg/mL | binding result [2]: no binding (tested: 10,000 nM) | binding result [3]: no binding (tested: 10,000 nM) | binding result [4]: no binding (tested: 10,000 nM) | binding result [5]: no binding (tested: 10,000 nM)
